The text below walks through data of US7189519B2, “Bead-based detection of ligand-GPCR-G protein complexes” (STC.UNM, priority 1998, dated 2007).

The test concerns the target T1, FPR-αi2 (R-α) fusion protein (UniProt P04897+P21462).
T1 construct: expressed in transfected cells; U937 stated only for FPR
The experiment in a line: RGS activity assay on beads (FPR-αi2, fluorescent ligand, GTP, Gβγ beads). In kind it is biochemical. As to the method:
FPR-αi2 (R-α) was used in the standard assembly assay with fluorescent ligand (see FIG. 3, complex C), and with the amounts of GTP and RGS shown in FIG. 7, using beads coated with Gβγ. Bead fluorescence was measured as previously described.
Standard LRG Assembly Assay. The standard 10 μl assay consisted of 2 μl of water or 10^−4M GTPγS, 6 μl of soluble receptor preparation with or without ligand, and 2 μl of beads prepared as above, with 0.7 pmol G protein used per assay, and an unknown fraction left on the beads in the proper orientation. For FPR and R-αi2 assemblies, L^F (fMLFK-FITC) was added in excess of receptor to ensure that essentially all the receptor was bound. For FPR-GFP assembly, 10^−6 M L (fMLFFGGK) was added to the receptor preparation to ensure that essentially all the receptor was bound. Each mixture was mixed by pipetting to ensure a uniform starting suspension of the beads in 96 V-well plates (Costar), and then mixed at low speed on a vortex mixer at 7° for two hours. The 10 μl assays were individually brought to 200 μl with 0.1% dodecyl maltoside in buffer A in 12×75 mm tubes for flow cytometric measurement of fluorescence of the beads. LRG assembly was defined as the difference between fluorescence without GTPγS and that with GTPγS. All determinations were done in duplicate.
RGS Activity Affects LR-αG Assemblies on Beads. As a second mechanistic problem, the role of GTP and RGS activity in regulating the assembly of βγ subunits with the receptor-Giα fusion protein was examined (FIG. 7; see also FIGS. 3, complex C and FIG. 4B). […] The data were consistent with the idea that RGS, by enhancing the cleavage of GTP, affected the GTP dose-response for the formation of the bead-based complex. The shift in the dose-response was consistent with the consumption of 10 μM or more GTP in 10 μl over 2 hours in the presence of R-α, RGS, and L. Calculating that 24 nM R-α (the total added) consumed 10 μM GTP equally in the first half hour, leaving 60 minutes for assembly on the bead, the turnover number was ˜14 min^−1 for the receptor-Giα fusion protein at 7° C.; if rates double for every 10° C. increase, this would imply about 110 min^−1 at 37° C. Calculating consumption over the entire time yields ˜5 and 40 min^−1, respectively.
The nucleotide sensitivity of the assembly of R-αi2 with βγ allowed the activity and specificity of RGS to be examined. […] This assembly format therefore has the potential for discriminating RGS antagonists. Elsewhere it is described how GTP increases access of soluble assemblies of R-αi2 to anti-αi2 antibody, consistent with the idea of Ay binding and release (Shi M, et al., submitted).

T1 sequence (P21462+P04897 fused): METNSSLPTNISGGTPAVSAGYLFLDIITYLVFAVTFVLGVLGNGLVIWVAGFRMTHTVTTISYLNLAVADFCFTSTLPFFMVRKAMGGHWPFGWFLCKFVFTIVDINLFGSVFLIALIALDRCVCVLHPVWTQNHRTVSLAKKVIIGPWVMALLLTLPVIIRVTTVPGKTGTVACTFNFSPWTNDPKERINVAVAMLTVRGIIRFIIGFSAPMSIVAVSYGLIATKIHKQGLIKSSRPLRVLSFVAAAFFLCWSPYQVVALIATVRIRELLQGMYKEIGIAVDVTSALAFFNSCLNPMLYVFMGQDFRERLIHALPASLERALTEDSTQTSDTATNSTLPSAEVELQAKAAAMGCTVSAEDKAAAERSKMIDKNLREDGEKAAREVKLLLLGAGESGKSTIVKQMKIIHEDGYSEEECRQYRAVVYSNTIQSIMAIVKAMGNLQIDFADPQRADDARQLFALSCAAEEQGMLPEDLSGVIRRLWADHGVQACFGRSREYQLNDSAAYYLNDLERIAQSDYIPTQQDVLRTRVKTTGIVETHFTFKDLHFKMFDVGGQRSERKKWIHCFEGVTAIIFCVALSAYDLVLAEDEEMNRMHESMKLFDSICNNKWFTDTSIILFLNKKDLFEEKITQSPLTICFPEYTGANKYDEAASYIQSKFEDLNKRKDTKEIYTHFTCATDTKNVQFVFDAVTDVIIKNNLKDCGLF

B1: RGS8: regulator of G protein signaling protein (protein, UniProt P57771 1-180, looked up)
Regulator of G-protein …: MAALLMPRRNKGMRTRLGCLSHKSDSCSDFTAILPDKPNRALKRLSTEEATRWADSFDVLLSHKYGVAAFRAFLKTEFSEENLEFWLACEEFKKTRSTAKLVSKAHRIFEEFVDVQAPREVNIDFQTREATRKNLQEPSLTCFDQAQGKVHSLMEKDSYPRFLRSKMYLDLLSQSQRRLS
Take B1: the “GTP consumption in the presence of LR-α” value was “appeared to consume GTP”.

B2: RGS7: regulator of G protein signaling protein (protein, UniProt P49802 1-495, looked up)
Regulator of G-protein …: MAQGNNYGQTSNGVADESPNMLVYRKMEDVIARMQDEKNGIPIRTVKSFLSKIPSVFSGSDIVQWLIKNLTIEDPVEALHLGTLMAAHGYFFPISDHVLTLKDDGTFYRFQTPYFWPSNCWEPENTDYAVYLCKRTMQNKARLELADYEAESLARLQRAFARKWEFIFMQAEAQAKVDKKRDKIERKILDSQERAFWDVHRPVPGCVNTTEVDIKKSSRMRNPHKTRKSVYGLQNDIRSHSPTHTPTPETKPPTEDELQQQIKYWQIQLDRHRLKMSKVADSLLSYTEQYLEYDPFLLPPDPSNPWLSDDTTFWELEASKEPSQQRVKRWGFGMDEALKDPVGREQFLKFLESEFSSENLRFWLAVEDLKKRPIKEVPSRVQEIWQEFLAPGAPSAINLDSKSYDKTTQNVKEPGRYTFEDAQEHIYKLMKSDSYPRFIRSSAYQELLQAKKKSGNSMDRRTSFEKFAQNVGRNIPIFPCHKNCTPTLRASTNLL
Consider B2, for which the “GTP consumption in the presence of LR-α” value is “appeared to consume GTP”.

B3: RGS2: regulator of G protein signaling protein (protein, UniProt P41220 1-211, looked up)
Regulator of G-protein …: MQSAMFLAVQHDCRPMDKSAGSGHKSEEKREKMKRTLLKDWKTRLSYFLQNSSTPGKPKTGKKSKQQAFIKPSPEEAQLWSEAFDELLASKYGLAAFRAFLKSEFCEENIEFWLACEDFKKTKSPQKLSSKARKIYTDFIEKEAPKEINIDFQTKTLIAQNIQEATSGCFTTAQKRVYSLMENNSYPRFLESEFYQDLCKKPQITTEPHAT
Take B3: the “GTP consumption in the presence of LR-α” value is on record as “did not”.

B4: RGS4: regulator of G protein signaling protein (protein, UniProt P49798 1-205, looked up)
Regulator of G-protein …: MCKGLAGLPASCLRSAKDMKHRLGFLLQKSDSCEHNSSHNKKDKVVICQRVSQEEVKKWAESLENLISHECGLAAFKAFLKSEYSEENIDFWISCEEYKKIKSPSKLSPKAKKIYNEFISVQATKEVNLDSCTREETSRNMLEPTITCFDEAQKKIFNLMEKDSYRRFLKSRFYLDLVNPSSCGAEKQKGAKSSADCASLVPQCA
Consider B4, for which the “GTP consumption in the presence of LR-α” value was “appeared to consume GTP”.
